These results are taken from patent publication US20160252497A1 (NGM BIOPHARMACEUTICALS, published 2016).

In test [1] the target is T1, KLB (Klotho-beta), as used in the Biacore assay.
T1 construct: The form of KLB in the assay is not described; also called Klotho-β
Briefly: Biacore (data not shown).

The target of test [2] is FGFR4-KLB receptor complex (solid phase binding assay). Briefly: solid phase binding assay on the FGFR4-KLB receptor complex; bound ligand detected with a biotinylated FGF19-specific polyclonal antibody, absorbance at 450 nm. From the text:
(§1) (B) Binding of M70 to FGFR4 by Biacore. Similar procedures to (A) were used. (C) Solid phase binding of M70 or FGF19 to FGFR4-KLB receptor complex. The bound ligands were detected using a biotinylated FGF19-specific polyclonal antibody. (D) Relative luciferase activity after stimulation with M70 or FGF19 in L6 cells transiently transfected with FGFR4 in the presence or absence of KLB. (E) M70 induces ERK phosphorylation in Hep3B cells. (F) M70 repressed Cyp7a1 expression in primary hepatocytes of mouse, rat, and human origin. Relative expression of Cyp7a1 mRNA in hepatocytes were determined by qRT-PCR and normalized to 18S RNA (mouse and rat) or actin (human) mRNA levels. (G) Repression of hepatic Cyp7a1 expression by M70 in mice. 12-week-old db/db mice were injected intraperitoneally with recombinant M70 or FGF19 protein. Mice were euthanized 4 hours after dosing and hepatic Cyp7a1 expression was evaluated by qRT-PCR and normalized to 18S RNA expression. Dose response curves of Cyp7a1 repression in mice were shown. All values represent mean±SEM.
To elucidate the molecular mechanism that underline M70's inability to induce liver tumors, the interaction of M70 to the known receptor complex of FGF19 was assessed. Surface plasmon resonance (SPR) analysis was used to measure direct binding of M70 or FGF19 to FGFR4. […]

Test [3] concerns the target Rat FGFR4 on primary rat hepatocytes (rat, UniProt Q498D6 17-800). Briefly: cell-based or functional assay.
Test [4] concerns the target Mouse FGFR4 and mouse KLB co-expressed on rat L6 cells (mouse, UniProt Q03142 17-799; Q99N32 1-1043). The test is described as follows: cell-based or functional assay.
Test [5] deals with T2, Mouse FGFR4 on cells (L6 cells transfected with FGFR4 alone; primary mouse hepatocytes) (mouse, UniProt Q03142 17-799).
T2 sequence (looked up): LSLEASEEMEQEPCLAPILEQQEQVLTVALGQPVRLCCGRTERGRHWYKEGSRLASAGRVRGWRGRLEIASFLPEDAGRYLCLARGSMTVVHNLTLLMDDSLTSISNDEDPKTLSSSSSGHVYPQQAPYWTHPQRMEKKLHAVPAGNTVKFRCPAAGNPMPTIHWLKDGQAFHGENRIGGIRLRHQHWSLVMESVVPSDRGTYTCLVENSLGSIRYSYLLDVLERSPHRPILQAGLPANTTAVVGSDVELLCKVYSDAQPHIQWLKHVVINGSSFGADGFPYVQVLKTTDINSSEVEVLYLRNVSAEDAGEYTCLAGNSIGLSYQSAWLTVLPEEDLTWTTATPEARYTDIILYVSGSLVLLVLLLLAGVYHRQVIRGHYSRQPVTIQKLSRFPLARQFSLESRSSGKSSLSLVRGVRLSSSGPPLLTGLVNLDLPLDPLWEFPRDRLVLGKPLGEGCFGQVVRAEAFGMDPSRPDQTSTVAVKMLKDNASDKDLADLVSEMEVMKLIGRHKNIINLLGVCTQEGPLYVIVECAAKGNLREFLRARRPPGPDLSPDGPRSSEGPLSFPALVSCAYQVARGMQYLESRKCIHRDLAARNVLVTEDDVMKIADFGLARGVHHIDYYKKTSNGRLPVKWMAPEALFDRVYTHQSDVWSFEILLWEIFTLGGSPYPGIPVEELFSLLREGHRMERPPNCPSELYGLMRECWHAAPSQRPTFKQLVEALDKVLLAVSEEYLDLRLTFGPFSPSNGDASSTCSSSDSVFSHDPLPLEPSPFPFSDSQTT
Briefly: cell-based or functional assay.

The target in test [6] is Human FGFR4 and KLB expressed endogenously on Hep3B cells (human, UniProt P22455 22-802; Q86Z14 1-1044). The test is described as follows: cell-based or functional assay.
Human FGFR4 and KLB expressed endogenously on Hep3B cells, sequence (P22455 22-802, chain 1 of 2): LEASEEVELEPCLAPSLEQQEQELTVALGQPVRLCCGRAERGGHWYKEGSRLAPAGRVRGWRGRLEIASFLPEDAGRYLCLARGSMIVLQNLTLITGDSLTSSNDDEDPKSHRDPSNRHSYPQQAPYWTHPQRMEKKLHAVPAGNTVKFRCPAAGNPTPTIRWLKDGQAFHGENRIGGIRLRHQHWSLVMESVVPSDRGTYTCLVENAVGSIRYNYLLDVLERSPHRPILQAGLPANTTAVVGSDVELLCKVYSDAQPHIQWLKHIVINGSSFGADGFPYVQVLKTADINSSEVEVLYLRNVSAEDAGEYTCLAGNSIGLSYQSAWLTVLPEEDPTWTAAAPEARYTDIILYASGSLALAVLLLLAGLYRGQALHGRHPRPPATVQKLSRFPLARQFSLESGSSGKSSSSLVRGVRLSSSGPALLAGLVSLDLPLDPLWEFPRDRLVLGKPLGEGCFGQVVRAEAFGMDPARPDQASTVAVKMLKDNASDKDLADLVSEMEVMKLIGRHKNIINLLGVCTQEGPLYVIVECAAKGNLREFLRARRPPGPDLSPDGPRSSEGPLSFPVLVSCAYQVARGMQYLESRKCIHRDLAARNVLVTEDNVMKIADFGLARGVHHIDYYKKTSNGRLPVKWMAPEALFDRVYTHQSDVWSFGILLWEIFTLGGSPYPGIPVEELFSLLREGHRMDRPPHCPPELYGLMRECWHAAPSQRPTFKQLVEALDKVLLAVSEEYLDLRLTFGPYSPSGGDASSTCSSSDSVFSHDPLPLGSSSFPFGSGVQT
Human FGFR4 and KLB expressed endogenously on Hep3B cells, sequence (Q86Z14 whole entry, chain 2 of 2): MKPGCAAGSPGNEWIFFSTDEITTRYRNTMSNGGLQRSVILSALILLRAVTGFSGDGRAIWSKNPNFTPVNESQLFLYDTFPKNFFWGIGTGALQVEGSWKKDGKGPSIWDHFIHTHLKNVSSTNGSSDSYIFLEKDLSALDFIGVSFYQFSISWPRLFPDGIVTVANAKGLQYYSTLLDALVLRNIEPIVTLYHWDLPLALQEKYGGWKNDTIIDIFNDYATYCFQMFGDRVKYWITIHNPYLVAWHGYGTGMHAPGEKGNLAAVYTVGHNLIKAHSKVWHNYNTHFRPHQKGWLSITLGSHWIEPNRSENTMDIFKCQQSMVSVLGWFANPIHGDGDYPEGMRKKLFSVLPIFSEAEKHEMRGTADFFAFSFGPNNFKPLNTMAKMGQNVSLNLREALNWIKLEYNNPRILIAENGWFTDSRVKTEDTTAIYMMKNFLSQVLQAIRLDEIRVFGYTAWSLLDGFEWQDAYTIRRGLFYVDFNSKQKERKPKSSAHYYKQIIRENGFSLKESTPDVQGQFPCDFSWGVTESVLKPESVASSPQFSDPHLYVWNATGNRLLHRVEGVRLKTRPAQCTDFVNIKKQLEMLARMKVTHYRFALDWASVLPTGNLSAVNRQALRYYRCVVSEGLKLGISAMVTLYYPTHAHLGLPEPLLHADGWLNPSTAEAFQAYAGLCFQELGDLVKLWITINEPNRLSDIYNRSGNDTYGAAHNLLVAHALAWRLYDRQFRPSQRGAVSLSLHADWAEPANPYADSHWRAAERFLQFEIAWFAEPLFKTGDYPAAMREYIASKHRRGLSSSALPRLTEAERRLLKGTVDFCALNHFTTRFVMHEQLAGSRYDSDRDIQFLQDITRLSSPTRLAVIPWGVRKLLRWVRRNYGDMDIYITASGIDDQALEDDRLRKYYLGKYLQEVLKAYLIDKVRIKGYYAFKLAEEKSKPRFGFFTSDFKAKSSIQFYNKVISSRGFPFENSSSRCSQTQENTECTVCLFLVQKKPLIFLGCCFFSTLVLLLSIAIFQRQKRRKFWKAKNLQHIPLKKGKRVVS
In test [7] the target is Human FGFR4 on primary human hepatocytes (human, UniProt P22455 22-802). Briefly: cell-based or functional assay.
Human FGFR4 on primary human hepatocytes, sequence (P22455 22-802): as the sequence (P22455 22-802, chain 1 of 2) above
In test [8] the target is T3, Fc fusion protein of the extracellular domain (ECD) of FGFR4.
T3 construct: extracellular domain; Immobilized on Biacore flow cells; also called FGFR4-Fc chimeric protein; FGFR4-Fc
T3 sequence (P22455 22-369): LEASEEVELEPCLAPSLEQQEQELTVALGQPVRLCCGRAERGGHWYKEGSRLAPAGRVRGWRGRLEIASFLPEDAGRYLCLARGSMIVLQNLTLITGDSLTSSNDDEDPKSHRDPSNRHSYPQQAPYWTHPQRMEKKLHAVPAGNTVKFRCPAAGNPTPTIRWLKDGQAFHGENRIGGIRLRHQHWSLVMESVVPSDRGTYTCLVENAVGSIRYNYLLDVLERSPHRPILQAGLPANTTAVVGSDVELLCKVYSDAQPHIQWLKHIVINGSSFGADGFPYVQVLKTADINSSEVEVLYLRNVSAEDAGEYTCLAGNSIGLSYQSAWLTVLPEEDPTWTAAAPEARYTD
The test is described as follows: Biacore SPR, ligand flowed over chip coated with FGFR4 ECD-Fc, steady state fit.
Source text: as §1, with “FIGS. 9A-9G depicts M70 binding and activation of FGFR4 in vitro. (A) Biacore SPR assay of the interaction between FGF19 and FGFR4-Fc chimeric proteins immobilized on flow cells. […] (B)” for “(B)”
To elucidate the molecular mechanism that underline M70's inability to induce liver tumors, the interaction of M70 to the known receptor complex of FGF19 was assessed. […]

Rat FGFR4 on primary rat hepatocytes, sequence (Q498D6 17-800): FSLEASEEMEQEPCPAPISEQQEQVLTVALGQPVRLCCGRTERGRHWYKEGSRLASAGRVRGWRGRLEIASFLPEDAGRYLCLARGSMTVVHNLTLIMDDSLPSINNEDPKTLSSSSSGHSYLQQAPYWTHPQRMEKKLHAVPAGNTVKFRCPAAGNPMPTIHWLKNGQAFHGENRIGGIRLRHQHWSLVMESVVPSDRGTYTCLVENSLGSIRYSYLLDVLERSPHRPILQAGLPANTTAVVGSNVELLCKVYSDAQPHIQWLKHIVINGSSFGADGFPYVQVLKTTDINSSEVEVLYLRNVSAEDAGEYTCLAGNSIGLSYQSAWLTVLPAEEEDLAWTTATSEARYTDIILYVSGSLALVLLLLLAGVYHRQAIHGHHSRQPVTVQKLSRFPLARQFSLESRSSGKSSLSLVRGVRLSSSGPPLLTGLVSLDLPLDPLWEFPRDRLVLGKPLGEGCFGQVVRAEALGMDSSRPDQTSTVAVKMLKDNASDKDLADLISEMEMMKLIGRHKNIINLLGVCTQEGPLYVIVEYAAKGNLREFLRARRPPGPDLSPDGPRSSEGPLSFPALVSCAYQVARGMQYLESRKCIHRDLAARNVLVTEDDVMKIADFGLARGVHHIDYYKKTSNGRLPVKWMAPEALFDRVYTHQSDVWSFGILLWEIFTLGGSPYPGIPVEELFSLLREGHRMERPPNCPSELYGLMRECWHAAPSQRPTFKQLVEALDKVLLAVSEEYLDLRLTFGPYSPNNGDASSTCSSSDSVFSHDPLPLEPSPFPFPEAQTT
FGFR4-KLB receptor complex (solid phase binding assay), sequence (chain, as listed by the source, chain 1 of 2): as the sequence (P22455 22-369) above
FGFR4-KLB receptor complex (solid phase binding assay), sequence (chain, as listed by the source, chain 2 of 2): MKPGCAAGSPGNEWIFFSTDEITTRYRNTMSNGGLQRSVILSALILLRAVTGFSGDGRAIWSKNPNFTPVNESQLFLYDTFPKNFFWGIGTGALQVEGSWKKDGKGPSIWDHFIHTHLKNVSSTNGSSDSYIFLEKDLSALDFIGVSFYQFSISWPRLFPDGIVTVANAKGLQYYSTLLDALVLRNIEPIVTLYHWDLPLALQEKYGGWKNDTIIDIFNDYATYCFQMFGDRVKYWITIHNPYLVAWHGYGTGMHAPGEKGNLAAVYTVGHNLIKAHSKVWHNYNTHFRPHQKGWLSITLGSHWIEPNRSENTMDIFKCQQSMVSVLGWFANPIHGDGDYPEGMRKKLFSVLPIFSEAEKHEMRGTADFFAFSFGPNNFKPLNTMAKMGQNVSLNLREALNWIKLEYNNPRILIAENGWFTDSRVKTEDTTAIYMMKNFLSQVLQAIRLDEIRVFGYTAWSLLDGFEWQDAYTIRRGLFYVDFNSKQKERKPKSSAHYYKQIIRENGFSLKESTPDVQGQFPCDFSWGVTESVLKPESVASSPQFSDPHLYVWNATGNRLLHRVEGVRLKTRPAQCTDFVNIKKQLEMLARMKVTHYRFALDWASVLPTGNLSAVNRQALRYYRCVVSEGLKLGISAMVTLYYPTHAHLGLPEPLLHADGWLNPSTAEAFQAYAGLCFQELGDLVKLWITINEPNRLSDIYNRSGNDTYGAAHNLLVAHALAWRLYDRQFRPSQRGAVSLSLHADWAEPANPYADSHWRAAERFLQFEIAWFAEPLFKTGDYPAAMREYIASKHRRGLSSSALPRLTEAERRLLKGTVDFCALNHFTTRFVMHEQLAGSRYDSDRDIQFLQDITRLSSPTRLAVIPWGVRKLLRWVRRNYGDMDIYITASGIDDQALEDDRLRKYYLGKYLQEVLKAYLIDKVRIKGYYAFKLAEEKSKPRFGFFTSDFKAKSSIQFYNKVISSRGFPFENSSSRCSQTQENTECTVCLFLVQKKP
Mouse FGFR4 and mouse KLB co-expressed on rat L6 cells, sequence (Q99N32 whole entry, one chain of several): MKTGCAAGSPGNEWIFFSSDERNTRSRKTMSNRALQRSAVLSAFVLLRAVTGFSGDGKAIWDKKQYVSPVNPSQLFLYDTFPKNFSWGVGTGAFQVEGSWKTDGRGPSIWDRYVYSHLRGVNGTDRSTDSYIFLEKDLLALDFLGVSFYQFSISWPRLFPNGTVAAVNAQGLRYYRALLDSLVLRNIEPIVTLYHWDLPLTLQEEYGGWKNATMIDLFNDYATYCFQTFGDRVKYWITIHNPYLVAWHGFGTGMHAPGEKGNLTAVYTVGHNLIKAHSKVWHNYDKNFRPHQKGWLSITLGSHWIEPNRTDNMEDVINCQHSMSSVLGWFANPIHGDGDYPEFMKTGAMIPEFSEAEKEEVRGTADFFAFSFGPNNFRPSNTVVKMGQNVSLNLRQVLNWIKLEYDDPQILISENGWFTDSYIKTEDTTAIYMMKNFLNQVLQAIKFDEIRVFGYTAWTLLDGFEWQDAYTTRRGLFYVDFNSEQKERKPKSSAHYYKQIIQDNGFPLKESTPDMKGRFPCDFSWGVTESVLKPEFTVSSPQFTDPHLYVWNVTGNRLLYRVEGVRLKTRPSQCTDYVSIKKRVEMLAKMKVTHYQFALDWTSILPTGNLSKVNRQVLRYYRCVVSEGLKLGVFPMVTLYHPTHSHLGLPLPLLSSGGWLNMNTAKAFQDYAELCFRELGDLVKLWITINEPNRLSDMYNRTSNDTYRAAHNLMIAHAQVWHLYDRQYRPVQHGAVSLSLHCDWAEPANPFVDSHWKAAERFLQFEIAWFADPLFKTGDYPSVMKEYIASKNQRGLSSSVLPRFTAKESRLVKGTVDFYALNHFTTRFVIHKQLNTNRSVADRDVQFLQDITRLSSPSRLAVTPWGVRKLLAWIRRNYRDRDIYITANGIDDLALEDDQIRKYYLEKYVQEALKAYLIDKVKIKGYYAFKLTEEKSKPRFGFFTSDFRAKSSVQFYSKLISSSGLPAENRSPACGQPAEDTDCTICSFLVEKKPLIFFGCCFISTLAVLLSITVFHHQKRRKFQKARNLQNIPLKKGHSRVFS

B1: M70 (FGF19 variant carrying 3 amino acid substitutions A30S, G31S, H33L and a 5-amino acid deletion) (ligand)
chain: MRDSSPLVHYGWGDPIRLRHLYTSGPHGLSSCFLRIRADGVVDCARGQSAHSLLEIKAVALRTVAIKGVHSVRYLCMGADGKMQGLLQYSEEDCAFEEEIRPDGYNVYRSEKHRLPVSLSSAKQRQLYKNRGFLPLSHFLPMLPMVPEEPEDLRGHLESDMFSSPLETDSMDPFGLVTGLEAVRSPSFEK
notes: Engineered variant of human FGF19; also called FGF19 variant M70; recombinant M70 protein
For orientation: Kd means the concentration at which binding is half-saturated. Low readings indicate tighter binding, high ones weaker binding. The EC50 (read off the curve) is the concentration at which the effect is half-maximal. With B1, the Kd in test [1] is 0.0241 nM. The “EC50 (read off the curve)” value in test [2] was about 2 nM. Also, the “repression of Cyp7a1 expression in primary rat hepatocytes (IC50)” value in test [3] worked out at 0.00049 nM. Also, the “GAL-Elk1 luciferase reporter activity in L6 cells co-expressing FGFR4 and KLB (EC50)” value in test [4] was 0.038 nM. Further, in test [5], the “GAL-Elk1 luciferase reporter activity in L6 cells transfected with FGFR4 alone (reduction in potency against FGFR4 plus KLB)” value was found to be 500 fold and the “repression of Cyp7a1 expression in primary mouse hepatocytes (IC50)” value was determined as 0.00064 nM. The “phosphorylation and activation of ERK in Hep3B cells (EC50)” value in test [6] worked out at 0.38 nM. For the same molecule, the “repression of Cyp7a1 expression in primary human hepatocytes (IC50)” value in test [7] was determined as 0.0068 nM. Besides, binding in test [8] was put at a Kd of 134 nM.
